The text below walks through data of patent US20250320281A1.

What all share (test): cell-based or functional assay
In assay [1] the target is HIV-1 APV-6 envelope glycoprotein (Env) on pseudovirus (HIV-1).
Assay [2] concerns the target HIV-1 Env of isolate 93TH305, clade B, on pseudovirus (HIV-1).
Assay [3] has as its target HIV-1 Env of isolate CAAN.A2 (Acute), clade B, on pseudovirus (HIV-1).
The target in assay [4] is HIV-1 Env of isolate MGRM-D-012 (clade D pseudovirus) (HIV-1).
Assay [5] concerns the target HIV-1 Env of isolate PVO.4 (Acute), clade B, on pseudovirus (HIV-1).
Assay [6] deals with HIV-1 Env of pseudovirus CMU02 (clade CRF01_AE) (HIV-1).
In assay [7] the target is HIV-1 Env of pseudovirus MGRM-AG-009 (clade CRF_AG) (HIV-1).
In assay [8] the target is HIV-1 Env of pseudovirus MGRM-F1-006 (HIV-1).
Assay [9] has as its target HIV-1 Env of pseudovirus MGRM-F1-012 (HIV-1).
Assay [10] deals with HIV-1 Env of pseudovirus MGRM-F1-015 (HIV-1).
The target in assay [11] is HIV-1 IAVI-C18 envelope glycoprotein (Env) on pseudovirus (HIV-1).
Assay [12] deals with HIV-1 envelope glycoprotein (Env) of isolate 93UG077, clade A (HIV-1).
Assay [13] has as its target HIV-1 envelope glycoprotein (Env) of isolate MGRM-A-003, clade A (HIV-1).
Assay [14] addresses HIV-1 envelope glycoprotein (Env) of isolate MGRM-A-008, clade A (HIV-1).
Assay [15] concerns the target aMLV envelope protein on pseudovirus (negative control).
Assay [16] has as its target HIV-1 Env of isolate 6535.3 (HIV-1).
Assay [17] has as its target HIV-1 Env of isolate 92UG005 (HIV-1).
For assay [18], the target named is HIV-1 Env of isolate 92UG046 (HIV-1).
For assay [19], the target named is HIV-1 Env of isolate 92WR009 (HIV-1).
Assay [20] deals with HIV-1 Env of isolate 92WR026 (HIV-1).
The target of assay [21] is HIV-1 Env of isolate 98CN006 (HIV-1).
Assay [22] deals with HIV-1 Env of isolate MGRM-A-010 (subtype A) (HIV-1).
Assay [23] addresses HIV-1 Env of isolate MGRM-A-011 (subtype A) (HIV-1).
Assay [24] addresses HIV-1 Env of isolate MGRM-A-012 (subtype A) (HIV-1).
For assay [25], the target named is HIV-1 Env of isolate MGRM-A-014 (subtype A) (HIV-1).
The target in assay [26] is HIV-1 Env of isolate MGRM-AE-004 (subtype AE) (HIV-1).
Assay [27] deals with HIV-1 Env of isolate MGRM-AE-006 (subtype AE) (HIV-1).
Assay [28] has as its target HIV-1 Env of isolate MGRM-AG-002 (subtype AG) (HIV-1).
In assay [29] the target is HIV-1 Env of isolate MGRM-AG-005 (subtype AG) (HIV-1).
Assay [30] has as its target HIV-1 Env of isolate MGRM-C-005 (subtype C) (HIV-1).
Assay [31] addresses HIV-1 Env of isolate SF162 (subtype B) (HIV-1) (UniProt P19550).
Assay [32] concerns the target HIV-1 Env of isolate THR0.18 (subtype B) (HIV-1).
Assay [33] has as its target HIV-1 Env of pseudovirus isolate MGRM-G-024 (HIV-1).
The target of assay [34] is HIV-1 envelope glycoprotein (Env) of isolate MGRM-C-007 (HIV-1).
Assay [35] addresses HIV-1 envelope glycoprotein (Env) of isolate MGRM-C-013 (HIV-1).
Assay [36] deals with HIV-1 envelope glycoprotein (Env) of isolate MGRM-C-020 (HIV-1).
The target of assay [37] is HIV-1 Env of isolate CMU02 (clade AE), on pseudovirus (HIV-1).

5345_I01 (PGT-137) (antibody), sequence (VH): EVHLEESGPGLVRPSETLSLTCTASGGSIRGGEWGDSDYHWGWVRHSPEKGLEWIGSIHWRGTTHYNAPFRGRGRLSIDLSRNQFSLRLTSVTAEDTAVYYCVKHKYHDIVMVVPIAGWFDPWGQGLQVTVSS
5345_I01 (PGT-137) (antibody), sequence (VL): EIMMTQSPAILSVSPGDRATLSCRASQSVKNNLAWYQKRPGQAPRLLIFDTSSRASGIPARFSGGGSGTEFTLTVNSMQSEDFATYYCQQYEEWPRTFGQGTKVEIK
5329_C19 (PGT-136) (antibody), sequence (VH): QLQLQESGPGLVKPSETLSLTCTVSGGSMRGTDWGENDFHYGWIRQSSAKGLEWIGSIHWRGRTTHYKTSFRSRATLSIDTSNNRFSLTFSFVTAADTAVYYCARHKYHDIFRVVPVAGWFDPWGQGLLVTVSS
5329_C19 (PGT-136) (antibody), sequence (VL): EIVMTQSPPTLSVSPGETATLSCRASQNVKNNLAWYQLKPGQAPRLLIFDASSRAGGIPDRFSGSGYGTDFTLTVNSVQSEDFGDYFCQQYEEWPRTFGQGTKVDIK

Broadly, the IC50 is the point on the concentration scale where inhibition reaches its midpoint. A high value points to weaker potency. For the substance 2F5 (antibody), the IC50, pseudovirus neutralization was 0.1 µg/mL in assay [1] and above 50 µg/mL in [11]. The IC50 (µg/ml), pseudovirus neutralization is 7.61 µg/mL in assay [2]; 23.1 µg/mL in assay [3]; 1.7 µg/mL in [4]; above 50 µg/mL in [5]; 1.1 µg/mL in assay [8]; above 50 µg/mL in assay [9]. In addition, the IC50 (µg/ml), pseudovirus neutralization in assay [10] was 0.1 µg/mL; in assay [12], 3.3 µg/mL; in [13], 7.37 µg/mL; in [14], above 50 µg/mL. Besides, the IC50 in [6] is 0.6 µg/mL; in [7], 24.8 µg/mL. Also, in assay [15], the IC90 (pseudovirus neutralization) was above 50 µg/mL.
1495_C14 (PGC14) (antibody): the IC50, pseudovirus neutralization in [1] was 7.41 µg/mL; in assay [11] it was above 50 µg/mL. The IC50 (µg/ml), pseudovirus neutralization in assay [2] was 6 µg/mL; in assay [3], above 50 µg/mL; in assay [4] it was above 50 µg/mL; in assay [5], above 50 µg/mL; in assay [8], above 50 µg/mL; in assay [9] it was above 50 µg/mL. Moreover, the IC50 (µg/ml), pseudovirus neutralization in [10], in assay [12], in assay [13] and in [14] was above 50 µg/mL each time. The IC50 in [6] and in assay [7] was above 50 µg/mL in each case.
Regarding 5136_H01 (PGT-131) (antibody), the neutralization IC50 in [16] turned out to be 0.056 µg/mL. For the same substance, the IC50 (µg/mL), pseudovirus neutralization is 0.854 µg/mL in assay [17]; above 50 µg/mL in assay [18]; 35.3 µg/mL in assay [21]; 0.01 µg/mL in assay [22]; above 50 µg/mL in [23]; above 50 µg/mL in assay [24]. Moreover, the IC50 (µg/mL), pseudovirus neutralization was 15.4 µg/mL in [25]; above 50 µg/mL in [26]; 0.026 µg/mL in assay [27]; above 50 µg/mL in assay [28]; 1.04 µg/mL in assay [29]; 10.7 µg/mL in assay [33]. The IC50 (µg/mL), pseudovirus neutralization in assay [34], in [35] and in assay [36] was above 50 µg/mL in each case. Moreover, the values for the IC50 in [19] and in [20] were 3.12 µg/mL and 0.041 µg/mL, respectively. In addition, the IC50 neutralization was 1.36 µg/mL in assay [30], 0.025 µg/mL in assay [31] and above 50 µg/mL in [32].
In [16], 5147_N06 (PGT-130) (antibody) gave a neutralization IC50 of 0.031 µg/mL. Also, the IC50 (µg/mL), pseudovirus neutralization was 0.959 µg/mL in [17]; above 50 µg/mL in assay [18]; 0.258 µg/mL in assay [21]; 0.005 µg/mL in [22]; above 50 µg/mL in assay [23]; above 50 µg/mL in assay [24]. For the same substance, the IC50 (µg/mL), pseudovirus neutralization in assay [25] was 0.161 µg/mL; in assay [26], 2.43 µg/mL; in assay [27] it was 0.009 µg/mL; in assay [28], above 50 µg/mL; in [29], 0.54 µg/mL; in assay [33], 5.84 µg/mL. The IC50 (µg/mL), pseudovirus neutralization in [34], in [35] and in [36] was above 50 µg/mL each time. For the same substance, the IC50 in assay [19] turned out to be 1.27 µg/mL; in assay [20], 0.037 µg/mL. Moreover, the IC50, pseudovirus neutralization in assay [37] was above 10 µg/mL. In addition, the figures for the IC50 neutralization in [30], in assay [31] and in [32] were 0.935 µg/mL, 0.007 µg/mL and above 50 µg/mL, respectively.
In the case of 5329_C19 (PGT-136) (antibody), the neutralization IC50 in [16] was above 50 µg/mL. Moreover, the IC50 (µg/mL), pseudovirus neutralization in assay [17] is above 50 µg/mL; in assay [18] it was above 50 µg/mL; in assay [21] it was 0.406 µg/mL; in assay [22], above 50 µg/mL; in assay [23], above 50 µg/mL; in assay [24], above 50 µg/mL. For the same substance, the IC50 (µg/mL), pseudovirus neutralization in assay [25] is above 50 µg/mL; in assay [26], above 50 µg/mL; in [27] it was above 50 µg/mL; in assay [28], above 50 µg/mL; in assay [29], above 50 µg/mL; in [33] it was 0.152 µg/mL. Moreover, the IC50 (µg/mL), pseudovirus neutralization in assay [34], in [35] and in assay [36] was above 50 µg/mL throughout. The IC50 in assay [19] and in assay [20] was above 50 µg/mL throughout. The IC50, pseudovirus neutralization in [37] was above 10 µg/mL. In addition, the IC50 neutralization is above 50 µg/mL in assay [30], 0.482 µg/mL in assay [31] and above 50 µg/mL in assay [32].
5343_B08 (PGT-135) (antibody) displayed a neutralization IC50 in assay [16] above 50 µg/mL. Further, the IC50 (µg/mL), pseudovirus neutralization in [17] was above 50 µg/mL; in assay [18] it was above 50 µg/mL; in [21], 0.429 µg/mL; in assay [22], above 50 µg/mL; in assay [23] it was above 50 µg/mL; in assay [24], above 50 µg/mL. Besides, the IC50 (µg/mL), pseudovirus neutralization in assay [25] is 0.636 µg/mL; in assay [26] it was above 50 µg/mL; in assay [27] it was above 50 µg/mL; in [28], above 50 µg/mL; in assay [29] it was above 50 µg/mL; in assay [33] it was 0.062 µg/mL. In addition, the IC50 (µg/mL), pseudovirus neutralization in assay [34], in assay [35] and in assay [36] was above 50 µg/mL in each case. For the same substance, the IC50 in assay [19] was above 50 µg/mL; in assay [20], 0.068 µg/mL. Besides, the IC50, pseudovirus neutralization in assay [37] was above 10 µg/mL. Also, the IC50 neutralization in [30] was above 50 µg/mL; in assay [31], 0.023 µg/mL; in assay [32], above 50 µg/mL.
Take 5345_I01 (PGT-137) (antibody): the neutralization IC50 in [16] is above 50 µg/mL. Moreover, the IC50 (µg/mL), pseudovirus neutralization is above 50 µg/mL in assay [17]; above 50 µg/mL in assay [18]; 1.22 µg/mL in [21]; above 50 µg/mL in [22]; above 50 µg/mL in assay [23]; above 50 µg/mL in assay [24]. For the same substance, the IC50 (µg/mL), pseudovirus neutralization in assay [25] is 18.6 µg/mL; in [26] it was above 50 µg/mL; in [27], above 50 µg/mL; in [28] it was above 50 µg/mL; in [29], above 50 µg/mL; in assay [33] it was 0.051 µg/mL. Moreover, the IC50 (µg/mL), pseudovirus neutralization in [34], in [35] and in assay [36] was above 50 µg/mL in each case. The figures for the IC50 in [19] and in assay [20] were above 50 µg/mL and 0.092 µg/mL, respectively. The results for the IC50 neutralization in assay [30], in assay [31] and in assay [32] were above 50 µg/mL, 3.41 µg/mL and above 50 µg/mL, respectively.
